Molecular target: CD8a extracellular domain (Homo sapiens, UniProt P01732 22-182)
Test: BLI

CD8a extracellular domain, sequence (P01732 22-182): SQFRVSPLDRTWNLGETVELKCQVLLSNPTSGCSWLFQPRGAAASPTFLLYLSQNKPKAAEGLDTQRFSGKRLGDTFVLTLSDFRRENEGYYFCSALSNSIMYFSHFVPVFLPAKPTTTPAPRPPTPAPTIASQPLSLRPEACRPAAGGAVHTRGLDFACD

| Binder | Kd [nM] |
| --- | --- |
| A3 (structured_DNA) DNA: ATCCAGAGTGACGCAGCAACAGAGGTGTAGAAGTACACGTGAACAAGCTTGAAATTGTCTCTGACAGAGGTGGACACGGTGGCTTAGT | 14.7 ± 0.1 |
| A8 (structured_DNA) DNA: ATCCAGAGTGACGCAGCAGCTCGATCGTATAGCCGTGACGCAGCTTGAAATGGGATCGCGTCCACAGTTTTGGACACGGTGGCTTAGT | 5.59 ± 0.11 |

— PMC6783348
